Test in all cases: fluorescence polarization
(In general: Fluorescence polarisation rises when a labelled molecule tumbles more slowly, as on binding a larger partner.)

Data set [1] concerns the target T1, Dnmt3a-CD (murine, UniProt O88508 608-908).
In data set [2] the target is T1, Dnmt3a-CD. This is another data set of the same source.
The target in data set [3] is T1, Dnmt3a-CD. This is another data set of the same source.
The next data set has as its target M.SssI (UniProt P15840 1-386).

Read-outs that look alike come from different tables or passages of the source.

T1 sequence (O88508 608-908): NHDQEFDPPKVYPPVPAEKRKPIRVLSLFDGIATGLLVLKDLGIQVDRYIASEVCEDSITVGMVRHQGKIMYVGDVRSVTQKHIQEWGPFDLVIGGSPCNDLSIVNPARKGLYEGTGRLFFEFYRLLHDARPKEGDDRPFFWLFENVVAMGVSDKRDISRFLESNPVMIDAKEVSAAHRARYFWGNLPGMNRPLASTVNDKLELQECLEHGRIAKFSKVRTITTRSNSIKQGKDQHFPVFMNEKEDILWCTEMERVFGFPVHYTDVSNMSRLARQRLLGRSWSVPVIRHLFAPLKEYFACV
Sequence of M.SssI (P15840 whole entry): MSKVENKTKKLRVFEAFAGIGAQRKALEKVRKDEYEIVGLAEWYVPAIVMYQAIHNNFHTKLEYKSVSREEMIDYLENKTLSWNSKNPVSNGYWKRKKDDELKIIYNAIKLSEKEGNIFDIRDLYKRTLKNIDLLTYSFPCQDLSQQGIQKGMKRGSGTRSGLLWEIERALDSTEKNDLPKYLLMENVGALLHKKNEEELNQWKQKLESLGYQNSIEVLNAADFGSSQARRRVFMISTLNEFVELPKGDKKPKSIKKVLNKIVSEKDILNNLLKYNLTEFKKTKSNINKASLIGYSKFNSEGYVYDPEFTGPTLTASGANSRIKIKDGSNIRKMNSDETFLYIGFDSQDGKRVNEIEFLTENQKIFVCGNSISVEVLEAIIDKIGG

B1: GCB+C/CGCG (dsDNA)
DNA 1: GAGCCAAGCGCACTCTGA
DNA 2: TCAGAGTGCGCTTGGCTC
modifications: (+)-trans-anti-B[a]PDE-N2-dG at strand 1 position 10
For B1, the binding result in the data set with Dnmt3a-CD [1] is “binds”.

B2: GCGC/CGMG (dsDNA)
DNA 1: GAGCCAAGCGCACTCTGA
DNA 2: TCAGAGTGCGCTTGGCTC
modifications: 5-methylcytosine at strand 2 position 9
For B2, in the data set with Dnmt3a-CD [2], the binding result was “binds”.

B3: GCGC/CGCG (dsDNA)
DNA 1: GAGCCAAGCGCACTCTGA
DNA 2: TCAGAGTGCGCTTGGCTC
For the molecule B3, the binding result with Dnmt3a-CD [3] and with M.SssI was “binds” each time.

These data come from publication PMC3076715.
